{"source": "patent US20250154231A1", "about": "(RQBIO COVID, published 2025)", "binders": {"B1": {"name": "Omi12 (antibody, V domains shown)", "VH": "EVQLVESGPEVKKPGTSVKVSCKASGFSFSMSAMQWVRRARGQRLEWIGWIVPGSGNANYAQKFQERVTITRDESTNTGYMELSSLRSEDTAVYYCAAPHCNKTNCYDAFDIWGQGTMVTVSS", "VL": "AIRMTQSPGTLSLSPGERATLSCRASQSVRSSYLAWYQQKPGQAPRLLIYGASTRATGIPDRFSGSGSGTDFILTINRLEPEDLAVYYCQQFGSSPWTFGQGTKVDIK"}, "B2": {"name": "Omi41 (antibody, V domains shown)", "VH": "QVQLVQSGAEVKKPGASVKVSCKAAGYSFMNYGINWVRQAPGQGLEWMGWINTYNGNAKYAQKFQGRVTMTTDTSTSTAYMELRSLRSGDTAVYYCARDPFTGYDDVWGGDYWGQGTLVTVSS", "VL": "not shown"}, "B3": {"name": "Omi06 (antibody, V domains shown)", "VH": "EVQLLESGPGLVKPSETLSLTCTVSGGSISRYSWSWIRQPAGRGLEWIGRMYSSGGTNYNPSLESRVTMSLDTSKKQFSLKLSSVTAADTAVYYCAAASIDQVWGTYRDAFDIWGQGTMVTVSS", "VL": "AIRMTQSPSSLAASVGDRVTISCRAGQSISSFLHWYQQKVGKAPKLLIYDASSLQSGVPSRFSGSGSGTDFTLTISSLQPEDFAAYYCQQSYENPLTFGGGTKVDIK"}, "B4": {"name": "Omi16 (antibody, V domains shown)", "VH": "EVQLVESGGGVVQPGGSLRLSCAASGIIVSANYMTWVRQAPGKGLEWVSVIYPGGSTFYADSVKGRFTISRDNSKNTLYLQMNSLRVEDSAVYYCARDLELAGFNDFWGQGTLVTVSS", "VL": "DVVMTQSPGTLALSPGERATLSCRTSQSVSSNYLAWYQQKPGQAPRLLIYGASSRATGIPDRFSGSGSGTDFTLTISRLEPEDFAVYYCQQFGSSPRYTFGQGTKVEIK"}, "B5": {"name": "Omi17 (antibody, V domains shown)", "VH": "QVQLVESGGGVVQPGGSLRLSCAASGVTVSSNYMSWVRQAPGKGLEWVSVLYAGGSTFYADSVKGRFTISRDNSKNTLYLQMNSLRAEDTAAYYCARDLAVAGFLDSWGQGTLVTVSS", "VL": "B4 VL with V2I, A12S, T25A, S28G, N32I, L48V, I49L, F92Y"}, "B6": {"name": "Omi08 (antibody, V domains shown)", "VH": "EVQLVESGAEVKRPGASVKVSCKASGYTFTNYFMHWVRQAPGQGLEWMGVINPSDGGASYPQKFQGRVTMTRDTSTSTVYMDLSSLRSEDTAVYSCARGAFDVSGSWYVPFDYWGQGTLVTVSS", "VL": "QSVVTQPPSVSGAPGQRVTISCTGSSSNIGAGYDVHWYQQLPGAAPKLLIYGNTNRPSGVPDRFSGSKSGTSASLAITGLQAEDEADYYCQSYDITLSGSGYVFGTGTKVTVL"}, "B7": {"name": "Omi09 (antibody, V domains shown)", "VH": "QVQLVESGGGVVQPGRSLRLSCAASGFTFRTYAVHWVRQAPGKGPEWVAVISYDGSNKYYADSVKGRFTLSRDTSKNTLYLQMNSLRAEDTAVYYCASRGDTVTTGDAFDIWGQGTMVTVSS", "VL": "SYELTQPPSVSVSPGQTARITCSGDALPKQYTYWYQQKPGQPPVLVIYKDSERPSGIPERFSGSSSGTTVTLTISGVQAEDEADYYCQSTDSSATYPGNVVFGGGTKLTVL"}, "B8": {"name": "Omi42 (antibody, V domains shown)", "VH": "EVQLLETGGGLVQPGRSLRLSCAASGFPFDDYAIHWVRLAPGKGLEWVSSISWDSGSIGYADSVKGRFTISRDNAKNSLYLQMNSLRAEDTALYYCAKGAFPGYSSGWYYGLDVWGQGATVTVSS", "VL": "QSVVTQPPSASGSLGQSVTISCTGTSSDVGGYNYVSWYQQHPGKAPKLMIFEVSKRPSGVPDRFSGSKSGNTASLTVSGLQAEDEADYYCSSYAGNKGVFGGGTKLTVL"}, "B9": {"name": "Omi18 (antibody, V domains shown)", "VH": "QVQLVESGGGLIQPGGSLRLSCAASGITVSSNYMTWVRQAPGKGLEWVSLLYAGGSAFYADSVKGRFTISRDNSKNTLYLLMNSLRVGDTAVYYCARDLQVYGMDVWGQGTTVTVSS", "VL": "SYELTQPPSVSVAPGQTARITCGGNNDGAKSVHWYQQKPGQAPVLVVYDDSDRPSGIPERFSGSNSGNTATLTITRIEAGDEADYYCQVWDSSRDHVFGTGTKVTVL"}}, "note": "Numbering of substitutions follows the chain as printed.", "data": [{"biological_target": "SARS-CoV-1 S protein (SARS-CoV-1, UniProt P59594 14-1195)", "assay": "ELISA", "values": [{"binder": "B1", "binding result": "no binding"}, {"binder": "B2", "binding result": "no binding"}, {"binder": "B3", "binding result": "no binding"}, {"binder": "B4", "binding result": "no binding"}, {"binder": "B5", "binding result": "no binding"}, {"binder": "B6", "binding result": "no binding"}, {"binder": "B7", "binding result": "no binding"}, {"binder": "B8", "binding result": "no binding"}, {"binder": "B9", "binding result": "no binding"}]}]}
